Experiments:
[1] = target: CHO host cell proteins (HCPs); assay: static binding of CHO HCPs; summary
[2] = target: CHO host cell proteins (HCPs); assay: dynamic binding of CHO HCPs, residence time 1 min; summary
[3] = target: CHO host cell proteins (HCPs); assay: dynamic binding of CHO HCPs, residence time 2 min; summary
[4] = target: CHO host cell proteins (HCPs); assay: dynamic binding, CHO cell culture fluid; summary for G.1 and G.2 together
[5] = target: CHO host cell proteins (HCPs); assay: static binding, null CHO-S cell culture fluid; summary for G.1 and G.2 together
[6] = target: CHO host cell proteins (HCPs); assay: static binding on resin, competitive, CHO HCPs with 1 mg/mL NIST mAb
[7] = target: CHO host cell proteins (HCPs); assay: static binding on resin, competitive, CHO HCPs with 5 mg/mL NIST mAb
[8] = target: CHO host cell proteins (HCPs); assay: static binding on resin, Langmuir isotherm fit; non-competitive, null CHO-S harvest
NIST mAb [9] = assay: static binding on resin, Langmuir isotherm fit; non-competitive, pure NISTmAb solution
[10] = target: CHO host cell proteins (HCPs); assay: static binding on resin, Langmuir fit; competitive, CHO HCPs with 1 mg/mL NISTmAb; HCP ELISA
[11] = target: CHO host cell proteins (HCPs); assay: static binding on resin, Langmuir fit; competitive, CHO HCPs with 5 mg/mL NISTmAb; HCP ELISA
[12] = target: CHO host cell proteins (HCPs); assay: static binding on resin, Langmuir isotherm fit; non-competitive, null CHO-S harvest; average HCP MW of 40 kDa assumed
[13] = target: CHO host cell proteins (HCPs); assay: static binding on resin, Langmuir isotherm fit; non-competitive; average HCP MW of 40 kDa assumed (Table 1 prints 6.50)
NIST mAb [14] = assay: adsorption kinetics on resin (FIG. 8A), pure NIST mAb in PBS pH 7.4
[15] = target: CHO host cell proteins (HCPs); assay: static binding on resin, competitive against non-competitive conditions
[16] = target: CHO host cell proteins (HCPs); assay: adsorption kinetics on resin (FIG. 8A), null CHO-S harvest; average HCP MW of 40 kDa assumed
[17] = target: CHO host cell proteins (HCPs); assay: breakthrough curve, industrial CHO harvest (mAb 1.38 mg/mL, HCP 0.46 mg/mL), residence time 1 min
[18] = target: CHO host cell proteins (HCPs); assay: breakthrough curve, industrial CHO harvest (mAb 1.38 mg/mL, HCP 0.46 mg/mL), residence time 2 min
[19] = target: CHO host cell proteins (HCPs); assay: breakthrough curve, industrial CHO harvest (mAb 1.38 mg/mL, HCP 0.46 mg/mL), residence time 5 min
[20] = target: CHO host cell proteins (HCPs); assay: breakthrough curve, industrial CHO harvest (mAb 1.38 mg/mL, HCP 0.46 mg/mL), residence time 0.5 min
non-Ig plasma proteins [21] = assay: flow-through loading of diluted cryo-rich plasma, two-column process
non-Ig plasma proteins [22] = assay: flow-through loading of cryo-poor plasma diluted 10-fold, above 10 CVs

How did the equilibrium capacity (mg per mL of resin) [1] turn out when LigaGuard™ was run?
The equilibrium capacity (mg per mL of resin) was 30.

What about the 10% breakthrough capacity [2] of the same substance?
The 10% breakthrough capacity was under 16 mg/mL.

And the 10% breakthrough capacity [3]?
Its 10% breakthrough capacity is under 22 mg/mL.

And the DBC10% [4]?
Its DBC10% is 16 to 22 mg/mL.

What about the Qmax (maximum binding capacity) (mg per mL of resin) [5] of the same substance?
The Qmax (maximum binding capacity) (mg per mL of resin) was 28 to 30.

For first generation (G.1) LigaGuard™ resin, which Qmax,HCPs [6] is on record?
Its Qmax,HCPs is 13 mg/mL.

And the Qmax,HCPs [7]?
The Qmax,HCPs was 10 mg per mL.

And the Qmax (static binding capacity) [8]?
Its Qmax (static binding capacity) is 21.8 mg/mL.

And the Kd (NIST mAb [9])?
The Kd was 14.2 µM.

What about the Qmax (static binding capacity) (NIST mAb [9]) of the same substance?
The Qmax (static binding capacity) was 11.5 mg/mL.

What about the Kd [10] of the same substance?
The Kd was 8.75 µM.

And the Qmax (static binding capacity) [10]?
The Qmax (static binding capacity) was 18.8 mg/mL.

What about the Kd [11] of the same substance?
Its Kd is 8.75 µM.

And the Qmax (static binding capacity) [11]?
The Qmax (static binding capacity) was 15.6 mg/mL.

What about the Kd [12] of the same substance?
The Kd was 6.5 µM.

And the Kd [13]?
Its Kd is 6.75 µM.

Which kon (NIST mAb [14]) does the source give for “second generation (G.2) LigaGuard™ resin” here?
The kon was 8710 M⁻¹ s⁻¹.

What about the Qmax,HCPs [6] of the same substance?
The Qmax,HCPs was 18 mg per mL.

What about the Qmax,HCPs [7] of the same substance?
Its Qmax,HCPs is 16 mg per mL.

And the decrease of Qmax,HCPs on adding 1 mg/mL mAb [15]?
The decrease of Qmax,HCPs on adding 1 mg/mL mAb was 25%.

What about the Qmax (static binding capacity) [8] of the same substance?
Its Qmax (static binding capacity) is 24.5 mg/mL.

What about the Kd (NIST mAb [9]) of the same substance?
The Kd was 28.3 µM.

And the Qmax (static binding capacity) (NIST mAb [9])?
Its Qmax (static binding capacity) is 10.5 mg/mL.

And the Kd [10]?
Its Kd is 4.25 µM.

What about the Qmax (static binding capacity) [10] of the same substance?
The Qmax (static binding capacity) was 23.1 mg/mL.

And the Kd [11]?
Its Kd is 4.75 µM.

What about the Qmax (static binding capacity) [11] of the same substance?
Its Qmax (static binding capacity) is 22.4 mg/mL.

What about the kon [16] of the same substance?
Its kon is 39000 M⁻¹ s⁻¹.

What about the DBC10% (dynamic binding capacity at 10% breakthrough) [17] of the same substance?
The DBC10% (dynamic binding capacity at 10% breakthrough) was 16.7 mg/mL.

What about the DBC10% (dynamic binding capacity at 10% breakthrough) [18] of the same substance?
Its DBC10% (dynamic binding capacity at 10% breakthrough) is 16.2 mg/mL.

What about the DBC10% (dynamic binding capacity at 10% breakthrough) [19] of the same substance?
Its DBC10% (dynamic binding capacity at 10% breakthrough) is 17.6 mg per mL.

And the DBC10% (dynamic binding capacity at 10% breakthrough) [20]?
The DBC10% (dynamic binding capacity at 10% breakthrough) was 14.3 mg/mL.

What about the Kd [12] of the same substance?
Its Kd is 3.25 µM.

“second-generation LigaGuard™ adsorbent (plasma work, Examples 5 and 6)” was tested. Which binding capacity (mg per mL of resin) (non-Ig plasma proteins [21]) did it give?
The binding capacity (mg per mL of resin) was 32.

And the QPP at saturation (non-Ig plasma proteins [22])?
The QPP at saturation was 30 mg/mL.

— US20250215050A1
